Reference: patent US9278137B2, “Polymeric conjugates of active principles, their process of preparation and their polymeric intermediates” (SANOFI, priority 2010, dated 2016)
Read-outs that look alike come from different tables or passages of the source.

Legend:
[1] = Nanoparticle size (hydrodynamic diameter) by dynamic light scattering (DLS); conditions: nanodispersion 10 mg/mL in WFI
[2] = for In vitro data in rat plasma (release of free cabazitaxel): 37° C., formulation 1 mg/mL; for release profile (in words): comparison of linkers

| Substance | Mean diameter (using DLS) [1] | PDI (DLS) [1] | In vitro data in rat plasma (release of free cabazitaxel) ([2]; Time 0 h) | In vitro data in rat plasma (release of free cabazitaxel) ([2]; Time 1 h) | In vitro data in rat plasma (release of free cabazitaxel) ([2]; Time 2 h) | In vitro data in rat plasma (release of free cabazitaxel) ([2]; Time 4 h) | In vitro data in rat plasma (release of free cabazitaxel) ([2]; Time 18 h) | In vitro data in rat plasma (release of free cabazitaxel) ([2]; Time 24 h) | free cabazitaxel released in 24 h ([2]; rat plasma) | release profile (in words) ([2]; rat plasma) | release of succinyl-cabazitaxel from the formulation ([2]; rat plasma, quantified using HPLC) |
| --- | --- | --- | --- | --- | --- | --- | --- | --- | --- | --- | --- |
| mPEG-PLA-succinyl-larotaxel [IX] | 48 nm | 0.17 | – | – | – | – | – | – | – | – | – |
| mPEG2000-PLA10000-Y-succinyl-2′-cabazitaxel [VIII′] | – | – | 0 | 0.84 | 1.68 | 3.30 | 17.35 | 20.16 | ~17% | slowest release profile | < 1 % of cabazitaxel present initially in the nanoparticles |
| mPEG-PLA-diglycolyl-cabazitaxel [XI] | 52 nm | 0.18 | 2.20 | 5.36 | 8.67 | 14.81 | 49.39 | 55.09 | ~47% | relatively rapid release | – |
| mPEG-PLA-glutaryl-cabazitaxel | 60 nm | 0.21 | 0 | 1.31 | 2.30 | 5.29 | 23.51 | 31.72 | ~27% | – | – |
